# From patent US20150344570A1 (published 2015)
# T1: FcγRIIb (human, UniProt P31994 43-217)
# T1 construct: extracellular domain; also called FcgRIIb; 2b
# T1 sequence (looked up): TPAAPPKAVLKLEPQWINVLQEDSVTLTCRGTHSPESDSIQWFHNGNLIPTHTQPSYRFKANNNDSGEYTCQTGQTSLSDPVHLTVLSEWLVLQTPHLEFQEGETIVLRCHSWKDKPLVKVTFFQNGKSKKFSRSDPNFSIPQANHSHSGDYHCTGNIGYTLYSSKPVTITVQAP
# T2: FcγRIIa H (human, UniProt P12318 34-217)
# T2 construct: extracellular domain; also called FcgRIIa H; FcγRIIa type H
# T2 sequence (looked up): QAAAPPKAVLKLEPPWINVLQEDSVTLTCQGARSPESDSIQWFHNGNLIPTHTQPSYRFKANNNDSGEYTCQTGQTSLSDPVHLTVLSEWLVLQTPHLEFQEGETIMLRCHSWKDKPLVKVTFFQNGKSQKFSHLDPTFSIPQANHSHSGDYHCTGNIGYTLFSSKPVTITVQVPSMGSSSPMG
# T3: FcγRIIb extracellular domain with C-terminal His tag (human, UniProt P31994 43-217)
# T3 construct: extracellular domain; also called 2b; FcgRIIb; not shown: His tag at the C terminus
# T3 sequence (looked up): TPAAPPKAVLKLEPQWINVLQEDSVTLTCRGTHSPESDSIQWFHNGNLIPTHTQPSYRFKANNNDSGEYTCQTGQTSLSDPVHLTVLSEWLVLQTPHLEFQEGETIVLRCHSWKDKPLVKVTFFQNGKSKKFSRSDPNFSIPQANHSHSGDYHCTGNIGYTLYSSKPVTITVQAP
# Key:
# [1] = molecular target: T1, FcγRIIb; test: SPR (Biacore), antibody captured, FcγR analyte; binding relative to GpH7-A5/GpH7-B3/GpL16-k0 = 100
# [2] = molecular target: T2, FcγRIIa H; test: as above
# [3] = molecular target: T2, FcγRIIa H; test: SPR (Biacore); He/Con_2aH divided by He/Con_2b (FcγRIIa H over FcγRIIb)
# [4] = molecular target: T3, FcγRIIb extracellular domain with …; test: SPR (Biacore), relative to GpH7-A5/GpH7-B3/GpL16-k0 = 100
# [5] = molecular target: T4, FcγRIIIa extracellular domain with C-terminal His tag (human, UniProt P08637 17-208); test: as above
# T4 construct: extracellular domain; also called 3a; FcgRIIIa; not shown: His tag at the C terminus
# T4 sequence (P08637 17-208): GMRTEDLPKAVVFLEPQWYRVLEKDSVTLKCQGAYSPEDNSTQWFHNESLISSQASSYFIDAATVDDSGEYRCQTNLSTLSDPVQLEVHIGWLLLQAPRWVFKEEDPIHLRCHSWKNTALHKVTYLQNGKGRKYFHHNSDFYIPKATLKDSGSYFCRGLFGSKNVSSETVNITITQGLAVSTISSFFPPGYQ
# [6] = molecular target: T4, FcγRIIIa extracellular domain with …; test: SPR (Biacore); ratio of He/Con_3a (FcγRIIIa) to He/Con_2b (FcγRIIb)
Binder,He/Con_2b [1],He/Con_2aH [2],He_2aH/2b (IIaH/IIb) [3],He/Con_2b [4],He/Con_3a [5],He_3a/2b (IIIa/IIb) [6]
"GpH7-A5/GpH7-B3 variant G237_20W/GpL16-k0 (antibody, human IgG1, kappa, Heterodimerized antibody, alteration in one H chain only; also called He Ab G237W) heavy 1: not shown heavy 2: not shown light: DIVMTQSPLSLPVTPGEPASISCQASESLVHSNRNTYLHWYLQKPGQSPQLLIYKVSNRFSGVPDRFSGSGSGTDFTLKISRVEAEDVGVYYCSQNTHVPPTFGQGTKVEIERTVAAPSVFIFPPSDEQLKSGTASVVCLLNNFYPREAKVQWKVDNALQSGNSQESVTEQDSKDSTYSLSSTLTLSKADYEKHKVYACEVTHQGLSSPVTKSFNRGEC",193 % of control,31.6 % of control,0.16 ratio,,,
"GpH7-A5/GpH7-B3 variant G237_02A/GpL16-k0 (antibody, human IgG1, kappa, IgG1, anti-glypican-3; also called He Ab) heavy 1: not shown heavy 2: not shown light: DIVMTQSPLSLPVTPGEPASISCQASESLVHSNRNTYLHWYLQKPGQSPQLLIYKVSNRFSGVPDRFSGSGSGTDFTLKISRVEAEDVGVYYCSQNTHVPPTFGQGTKVEIERTVAAPSVFIFPPSDEQLKSGTASVVCLLNNFYPREAKVQWKVDNALQSGNSQESVTEQDSKDSTYSLSSTLTLSKADYEKHKVYACEVTHQGLSSPVTKSFNRGEC",,,,124 % (control = 100),48.8 % (control = 100),0.39
"GpH7-A5/GpH7-B3 variant L234_09D/GpL16-k0 (antibody, human IgG1, kappa, Heterodimerized antibody, alteration in one H chain only; also called He Ab L234D) heavy 1: not shown heavy 2: not shown light: DIVMTQSPLSLPVTPGEPASISCQASESLVHSNRNTYLHWYLQKPGQSPQLLIYKVSNRFSGVPDRFSGSGSGTDFTLKISRVEAEDVGVYYCSQNTHVPPTFGQGTKVEIERTVAAPSVFIFPPSDEQLKSGTASVVCLLNNFYPREAKVQWKVDNALQSGNSQESVTEQDSKDSTYSLSSTLTLSKADYEKHKVYACEVTHQGLSSPVTKSFNRGEC",150 % of control,89.9 % of control,0.6 ratio,,,
"GpH7-A5/GpH7-B3 variant P238_04F/GpL16-k0 (antibody, human IgG1, kappa, Heterodimerized antibody, alteration in one H chain only; also called He Ab P238F) heavy 1: not shown heavy 2: not shown light: DIVMTQSPLSLPVTPGEPASISCQASESLVHSNRNTYLHWYLQKPGQSPQLLIYKVSNRFSGVPDRFSGSGSGTDFTLKISRVEAEDVGVYYCSQNTHVPPTFGQGTKVEIERTVAAPSVFIFPPSDEQLKSGTASVVCLLNNFYPREAKVQWKVDNALQSGNSQESVTEQDSKDSTYSLSSTLTLSKADYEKHKVYACEVTHQGLSSPVTKSFNRGEC",312 % of control,65.4 % of control,0.21 ratio,,,
"GpH7-A5/GpH7-B3 variant G236_10E/GpL16-k0 (antibody, human IgG1, kappa, IgG1, anti-glypican-3; also called He Ab) heavy 1: not shown heavy 2: not shown light: DIVMTQSPLSLPVTPGEPASISCQASESLVHSNRNTYLHWYLQKPGQSPQLLIYKVSNRFSGVPDRFSGSGSGTDFTLKISRVEAEDVGVYYCSQNTHVPPTFGQGTKVEIERTVAAPSVFIFPPSDEQLKSGTASVVCLLNNFYPREAKVQWKVDNALQSGNSQESVTEQDSKDSTYSLSSTLTLSKADYEKHKVYACEVTHQGLSSPVTKSFNRGEC",,,,110 % (control = 100),70.7 % (control = 100),0.64
"GpH7-A5/GpH7-B3 variant L234_10E/GpL16-k0 (antibody, human IgG1, kappa, Heterodimerized antibody, alteration in one H chain only; also called He Ab L234E) heavy 1: not shown heavy 2: not shown light: DIVMTQSPLSLPVTPGEPASISCQASESLVHSNRNTYLHWYLQKPGQSPQLLIYKVSNRFSGVPDRFSGSGSGTDFTLKISRVEAEDVGVYYCSQNTHVPPTFGQGTKVEIERTVAAPSVFIFPPSDEQLKSGTASVVCLLNNFYPREAKVQWKVDNALQSGNSQESVTEQDSKDSTYSLSSTLTLSKADYEKHKVYACEVTHQGLSSPVTKSFNRGEC",118 % of control,88.3 % of control,0.75 ratio,,,
"GpH7-A5/GpH7-B3 variant L235_20W/GpL16-k0 (antibody, human IgG1, kappa, Heterodimerized antibody, alteration in one H chain only; also called He Ab L235W) heavy 1: not shown heavy 2: not shown light: DIVMTQSPLSLPVTPGEPASISCQASESLVHSNRNTYLHWYLQKPGQSPQLLIYKVSNRFSGVPDRFSGSGSGTDFTLKISRVEAEDVGVYYCSQNTHVPPTFGQGTKVEIERTVAAPSVFIFPPSDEQLKSGTASVVCLLNNFYPREAKVQWKVDNALQSGNSQESVTEQDSKDSTYSLSSTLTLSKADYEKHKVYACEVTHQGLSSPVTKSFNRGEC",147 % of control,118 % of control,0.8 ratio,,,
"GpH7-A5/GpH7-B3 variant G236_11K/GpL16-k0 (antibody, human IgG1, kappa, IgG1, anti-glypican-3; also called He Ab) heavy 1: not shown heavy 2: not shown light: DIVMTQSPLSLPVTPGEPASISCQASESLVHSNRNTYLHWYLQKPGQSPQLLIYKVSNRFSGVPDRFSGSGSGTDFTLKISRVEAEDVGVYYCSQNTHVPPTFGQGTKVEIERTVAAPSVFIFPPSDEQLKSGTASVVCLLNNFYPREAKVQWKVDNALQSGNSQESVTEQDSKDSTYSLSSTLTLSKADYEKHKVYACEVTHQGLSSPVTKSFNRGEC",,,,49.8 % (control = 100),18.6 % (control = 100),0.37
"GpH7-A5/GpH7-B3 variant L235_09D/GpL16-k0 (antibody, human IgG1, kappa, Heterodimerized antibody, alteration in one H chain only; also called He Ab L235D) heavy 1: not shown heavy 2: not shown light: DIVMTQSPLSLPVTPGEPASISCQASESLVHSNRNTYLHWYLQKPGQSPQLLIYKVSNRFSGVPDRFSGSGSGTDFTLKISRVEAEDVGVYYCSQNTHVPPTFGQGTKVEIERTVAAPSVFIFPPSDEQLKSGTASVVCLLNNFYPREAKVQWKVDNALQSGNSQESVTEQDSKDSTYSLSSTLTLSKADYEKHKVYACEVTHQGLSSPVTKSFNRGEC",106 % of control,75.8 % of control,0.71 ratio,,,
"GpH7-A5/GpH7-B3 variant P238_01G/GpL16-k0 (antibody, human IgG1, kappa, Heterodimerized antibody, alteration in one H chain only; also called He Ab P238G) heavy 1: not shown heavy 2: not shown light: DIVMTQSPLSLPVTPGEPASISCQASESLVHSNRNTYLHWYLQKPGQSPQLLIYKVSNRFSGVPDRFSGSGSGTDFTLKISRVEAEDVGVYYCSQNTHVPPTFGQGTKVEIERTVAAPSVFIFPPSDEQLKSGTASVVCLLNNFYPREAKVQWKVDNALQSGNSQESVTEQDSKDSTYSLSSTLTLSKADYEKHKVYACEVTHQGLSSPVTKSFNRGEC",56 % of control,37.3 % of control,0.66 ratio,,,
"GpH7-A5/GpH7-B3 variant P238_06M/GpL16-k0 (antibody, human IgG1, kappa, Heterodimerized antibody, alteration in one H chain only; also called He Ab P238M) heavy 1: not shown heavy 2: not shown light: DIVMTQSPLSLPVTPGEPASISCQASESLVHSNRNTYLHWYLQKPGQSPQLLIYKVSNRFSGVPDRFSGSGSGTDFTLKISRVEAEDVGVYYCSQNTHVPPTFGQGTKVEIERTVAAPSVFIFPPSDEQLKSGTASVVCLLNNFYPREAKVQWKVDNALQSGNSQESVTEQDSKDSTYSLSSTLTLSKADYEKHKVYACEVTHQGLSSPVTKSFNRGEC",174 % of control,47.6 % of control,0.27 ratio,,,
"GpH7-A5/GpH7-B3 variant G236_09D/GpL16-k0 (antibody, human IgG1, kappa, IgG1, anti-glypican-3; also called He Ab) heavy 1: not shown heavy 2: not shown light: DIVMTQSPLSLPVTPGEPASISCQASESLVHSNRNTYLHWYLQKPGQSPQLLIYKVSNRFSGVPDRFSGSGSGTDFTLKISRVEAEDVGVYYCSQNTHVPPTFGQGTKVEIERTVAAPSVFIFPPSDEQLKSGTASVVCLLNNFYPREAKVQWKVDNALQSGNSQESVTEQDSKDSTYSLSSTLTLSKADYEKHKVYACEVTHQGLSSPVTKSFNRGEC",,,,167 % (control = 100),71.2 % (control = 100),0.43
"GpH7-A5/GpH7-B3 variant P238_03V/GpL16-k0 (antibody, human IgG1, kappa, Heterodimerized antibody, alteration in one H chain only; also called He Ab P238V) heavy 1: not shown heavy 2: not shown light: DIVMTQSPLSLPVTPGEPASISCQASESLVHSNRNTYLHWYLQKPGQSPQLLIYKVSNRFSGVPDRFSGSGSGTDFTLKISRVEAEDVGVYYCSQNTHVPPTFGQGTKVEIERTVAAPSVFIFPPSDEQLKSGTASVVCLLNNFYPREAKVQWKVDNALQSGNSQESVTEQDSKDSTYSLSSTLTLSKADYEKHKVYACEVTHQGLSSPVTKSFNRGEC",120 % of control,89 % of control,0.74 ratio,,,
